# Target: PRMT5 (UniProt O14744)
# Assay: co-IP with anti-PRMT5, JDP2 blot
# Details: reference: wild-type JDP2; sites T116
substance,measurement,value
JDP2 (from UniProt Q8WYK2) JDP2 T116A,binding against the reference,lost

# — article PMC6704105
